The Human Domainome abundance scans (Beltran et al. 2025)
± gives the uncertainty stated by the source.

B1: Ras GTPase-activating protein 1, residues 281 to 341; numbered along this chain, P20936 (parent)
chain: RRRVRAILPYTKVPDTDEISFLKGDMFIVHNELEDGWMWVTNLRTDEQGLIVEDLVEEVGR

Variants of: B1
Assay: abundance fitness (aPCA) (normalised: wild type 0, dead -1); higher = more abundant; growth selection in yeast, the domain comes from the species named
Settings: Homo sapiens

Variant	abundance fitness
RRRVRAILPYTKVPDTDCISFLKGDMFIVHNELEDGWMWVTNLRTDEQGLIVEDLVEEVGR	-0.341 ± 0.03
RRRVRAILPYTKVPDTDWISFLKGDMFIVHNELEDGWMWVTNLRTDEQGLIVEDLVEEVGR	-1.28 ± 0.29
RRRVRAILPYTKVPDTDVISFLKGDMFIVHNELEDGWMWVTNLRTDEQGLIVEDLVEEVGR	-0.369 ± 0.029
RRRVRAILPYTKVPDTDEISFLKGDMFIVHNELEDGWMWVTNLRTDEQGLIVEDQVEEVGR	-0.033 ± 0.059
RRRVRAILPYTKVPDTDEISFLKGDMFIVHNELEDGWMWVTNLRTDEQGLIVEDLVREVGR	-0.197 ± 0.043
RRRVRAILPYTKVPDTDEISFLKGDMFIVHNELEDGWMWVTNLRTDEQGLIVEDLVPEVGR	-0.848 ± 0.099
RRRVRAILPYTKVPDTDEISFLKGDMFIVHNELEDGWMWVTNLRTDEQGLIVEDLVLEVGR	-0.368 ± 0.041
RRRVRAILPYTKVPDTDEISFLKGDMFIVHNELEDGWMWVTNLRTDEQGLIVEDLVQEVGR	-0.083 ± 0.081
RRRVRAILPYTKVPDTDEISFLKGDMFIVHNELEGGWMWVTNLRTDEQGLIVEDLVEEVGR	0.015 ± 0.03
RRRVRAILPYTKVPDTDEISFLKGDMFIVHNELEEGWMWVTNLRTDEQGLIVEDLVEEVGR	-0.047 ± 0.062
RRRVRAILPYTKVPDTDEISFLKGDMFIVHNELEFGWMWVTNLRTDEQGLIVEDLVEEVGR	-0.182 ± 0.03
RRRVRAILPYTKVPDTDEISFLKGDMFIVHNELEDGWMWVTNLRTDEQGLIVEDLVEEKGR	-0.451 ± 0.079
RRRVIAILPYTKVPDTDEISFLKGDMFIVHNELEDGWMWVTNLRTDEQGLIVEDLVEEVGR	-0.055 ± 0.03
RRRVQAILPYTKVPDTDEISFLKGDMFIVHNELEDGWMWVTNLRTDEQGLIVEDLVEEVGR	-0.01 ± 0.057
RRRVAAILPYTKVPDTDEISFLKGDMFIVHNELEDGWMWVTNLRTDEQGLIVEDLVEEVGR	-0.354 ± 0.037
RRRVRAILPYTKVPDTDEISFLKGDMFIVHNELEDGWMWVTNLRTDEQGNIVEDLVEEVGR	-0.828 ± 0.044
RRRVRAILPYTKVPDTDEISFLKGDMFIVHNELEDGWMWVTNLRTDEQELIVEDLVEEVGR	-0.766 ± 0.085
RRRVRAILPYTKVPDTDEISFLKGDMFIEHNELEDGWMWVTNLRTDEQGLIVEDLVEEVGR	-0.873 ± 0.11
RRRSRAILPYTKVPDTDEISFLKGDMFIVHNELEDGWMWVTNLRTDEQGLIVEDLVEEVGR	-0.895 ± 0.027
RRRHRAILPYTKVPDTDEISFLKGDMFIVHNELEDGWMWVTNLRTDEQGLIVEDLVEEVGR	-0.739 ± 0.03
RRRVRAILPYTKMPDTDEISFLKGDMFIVHNELEDGWMWVTNLRTDEQGLIVEDLVEEVGR	-0.013 ± 0.073
RRRVRAILPYTKVPDTDEISGLKGDMFIVHNELEDGWMWVTNLRTDEQGLIVEDLVEEVGR	-0.914 ± 0.029

Variant	abundance fitness
RRRVRAILPYTKVPDTDEISFLKGDMFIVHNELEDGWMWVTNLRTDEQGLIVEYLVEEVGR	-0.183 ± 0.032
RRRVRAILPYTKVPDTDEISFLKGDMFIVHNELEDGWMWVTNLRTDEQGLIVEILVEEVGR	-0.338 ± 0.045
RRRVRAILPYTKVPDTDEISFLKGDMFIVHNELEDGWMWVTNLRTDEQGLIVEELVEEVGR	-0.069 ± 0.087
RRRVRAILPYTKVPDTDEISFLKGDMFIVHNELEDGWMWVTNLRTDEQGLIVEVLVEEVGR	-0.233 ± 0.037
RRRVRAILPYTKVPDTDEISFLKGDMFIVHNELEDGWMWVTNLRTDEQGLIVECLVEEVGR	-0.042 ± 0.035
RRRVRAILPYTKVPDTDEISFLKGDMFIVHNELEDGWMWVKNLRTDEQGLIVEDLVEEVGR	-0.143 ± 0.057
RRRVRAILPYTKVPDTDEISFLKGDMFIVHNELEDGWMWVTNARTDEQGLIVEDLVEEVGR	-0.229 ± 0.043
RRRVRAILPYTKVPDTDEISFLKGDMFIVHNELEDGWMWVTNPRTDEQGLIVEDLVEEVGR	-0.784 ± 0.079
RRRVRAILPYTKVPDTDEISFLKGDMFIVHNELEDGWMWVTNLRTAEQGLIVEDLVEEVGR	0.05 ± 0.027
RRRVRAILPYTKVPDTDEISFLKGDMFIVHNELEDGWMWVTNLRTDEQGLQVEDLVEEVGR	-1.07 ± 0.16
RRRVRAILPYTKVPDTDEISFLKGDMFIVHNRLEDGWMWVTNLRTDEQGLIVEDLVEEVGR	-0.053 ± 0.033
RRRVRAILPYTKVPDTDEISFLKGDMFIVHNELEDGWMWVTNLRHDEQGLIVEDLVEEVGR	-0.769 ± 0.046
RRRVRAILPYTKVPDTDEISFLKGDMFEVHNELEDGWMWVTNLRTDEQGLIVEDLVEEVGR	0.098 ± 0.034
RRRVRAILPYTKVPDTDEISFLKGDMFIVHNELEDGWMWVTNLRTDEQGLIVHDLVEEVGR	-0.003 ± 0.032
RRRVRAILPYTKVPDTDEISFLKGDMFIVHNELEDGWMWVTNLRTDEQGLIVTDLVEEVGR	0.041 ± 0.032
RRRVRAILPYTKVPDTDEISFLKGDMFIVHNELEDGWMWVTNLRTDEQGLIVRDLVEEVGR	-0.019 ± 0.028
RRRVRAILPYTKVPDTDEISFLKGDMFIVHNELEDGWMWVTNLRTDEQGLIVLDLVEEVGR	-0.236 ± 0.03
RRRVRAILPYTKVPDTDEISFLKGDMFIVHNELEDGWMWVTNLRTDEQGLIVEDLREEVGR	-0.846 ± 0.048
RRRVRAILPYTKVPDTDEISFLKGQMFIVHNELEDGWMWVTNLRTDEQGLIVEDLVEEVGR	-0.768 ± 0.22
RRRVRAILPYTKVPDTDEISFLKGLMFIVHNELEDGWMWVTNLRTDEQGLIVEDLVEEVGR	-0.852 ± 0.062
RRRVRAILPYTKVPDTDEISFLKGDMFIVHNELEDMWMWVTNLRTDEQGLIVEDLVEEVGR	-0.928 ± 0.12
RRRVRAILPYTKVPDTDEISFLKGDMFIVHNELEDGWMWVTNLRTDEQGLIFEDLVEEVGR	0.009 ± 0.026

Variant	abundance fitness
RRRVRAILPYTGVPDTDEISFLKGDMFIVHNELEDGWMWVTNLRTDEQGLIVEDLVEEVGR	0.023 ± 0.032
RRRVRAILPYTLVPDTDEISFLKGDMFIVHNELEDGWMWVTNLRTDEQGLIVEDLVEEVGR	-0.779 ± 0.041
RRRVRAILPYTKVPDTDEISFLNGDMFIVHNELEDGWMWVTNLRTDEQGLIVEDLVEEVGR	-0.246 ± 0.023
RRRVRAILPYTKVPDTDEISFLAGDMFIVHNELEDGWMWVTNLRTDEQGLIVEDLVEEVGR	-0.038 ± 0.031
RRRVRAIAPYTKVPDTDEISFLKGDMFIVHNELEDGWMWVTNLRTDEQGLIVEDLVEEVGR	0.074 ± 0.034
RRRVRAILPYTKVPDTDEISFLKGDMDIVHNELEDGWMWVTNLRTDEQGLIVEDLVEEVGR	-0.748 ± 0.051
RRRVRAILPYTKVPDTDEISFLKGDMFIVHNELEDGWKWVTNLRTDEQGLIVEDLVEEVGR	-0.414 ± 0.075
RRRVRAILPYTKVPDTDEISFLKCDMFIVHNELEDGWMWVTNLRTDEQGLIVEDLVEEVGR	-0.733 ± 0.036
RRRVRAILPYTKVPDTDEISFLKGDMFIVENELEDGWMWVTNLRTDEQGLIVEDLVEEVGR	0.008 ± 0.077
RRRVRAILPYTKVPDTDEQSFLKGDMFIVHNELEDGWMWVTNLRTDEQGLIVEDLVEEVGR	-1.16 ± 0.23
RRRVRAILPYTKVPDTDEYSFLKGDMFIVHNELEDGWMWVTNLRTDEQGLIVEDLVEEVGR	-0.86 ± 0.043
RRRVRVILPYTKVPDTDEISFLKGDMFIVHNELEDGWMWVTNLRTDEQGLIVEDLVEEVGR	-0.899 ± 0.028
RRRVRAILPYTKVPDTDEISFLKGDMFIVHGELEDGWMWVTNLRTDEQGLIVEDLVEEVGR	-0.072 ± 0.028
RRRVRAILPYTKVPDTDEISFLKGDMFIVHNELEDGWMWGTNLRTDEQGLIVEDLVEEVGR	-0.547 ± 0.029
RRRVRAILPYTKVPDTDEISFLKGDMFIVHNELEDGWMWLTNLRTDEQGLIVEDLVEEVGR	-0.935 ± 0.062
RRRVRAILPYTKVPDTDEISFLKGDMFIVHNELEDGWMWRTNLRTDEQGLIVEDLVEEVGR	-0.836 ± 0.048
RRRVRAILPYTKVPDTDEISFLKGDMFIVHNELEDGWMWCTNLRTDEQGLIVEDLVEEVGR	-0.102 ± 0.027
RRRVRAILPYTKVPDTDEISFLKGDMFIVHNELEDGWMWSTNLRTDEQGLIVEDLVEEVGR	-0.826 ± 0.036
RRRVRAILPYTKVPDTDEISFLKGDMFIVHNELEDGWMWITNLRTDEQGLIVEDLVEEVGR	-0.829 ± 0.048
RRRVRAILPYTKVPDTDEISFLKGDMFIVHNELEDGWMWTTNLRTDEQGLIVEDLVEEVGR	-0.672 ± 0.054
RRRVRAILPYTKVPDTDEISFLKGDMFIVHNELEDGWMWWTNLRTDEQGLIVEDLVEEVGR	-0.917 ± 0.14
RRQVRAILPYTKVPDTDEISFLKGDMFIVHNELEDGWMWVTNLRTDEQGLIVEDLVEEVGR	-0.066 ± 0.06

Variant	abundance fitness
RRRVRAILPYTKVPDTDEISFLKGDMFIVHNELEDGWMWVTNLYTDEQGLIVEDLVEEVGR	-0.523 ± 0.035
RRRVRAILPSTKVPDTDEISFLKGDMFIVHNELEDGWMWVTNLRTDEQGLIVEDLVEEVGR	-0.623 ± 0.042
RRRVRAILPYTKVPDTDEISFLKGDMFIVHNELEDGWMWVTNLRTDEQGLIVEDLVEDVGR	-0.026 ± 0.037
RRRVRAILPYTKVPDTDEISFLKGDMFIVHNELEDGWMWVTNLRTDEQGLIVEDLVECVGR	-0.146 ± 0.032
RRRVRANLPYTKVPDTDEISFLKGDMFIVHNELEDGWMWVTNLRTDEQGLIVEDLVEEVGR	-0.292 ± 0.032
RRRVRAILPYTKVPDTDEISFLKGDMFIVHNELEDGWMPVTNLRTDEQGLIVEDLVEEVGR	-0.796 ± 0.043
RRRVRAILPYTKVPDTDEISFLKGDMFIVHNELEDGWMDVTNLRTDEQGLIVEDLVEEVGR	-0.226 ± 0.023
RRRVRAILPYTKVPDTDEISFLKGDMFIVHNELEDGWMWVTNLRTDEQGLIVEDLVEEVGK	0.108 ± 0.074
RRRVRAILPYTKVPDTDEISFLKGDMFIVHNELEDGWMWVTNLRTDEQGLIVEDLVEEVGA	0.067 ± 0.051
RRRVRAILPYTKVPDTDEISFLKGDMFIVHNELEDGWMWVTNLRTDHQGLIVEDLVEEVGR	-0.253 ± 0.032
RRRVRAILPYTKVPDTDEISFLKGDMFIVHNELEDGWMWVTNLRTDMQGLIVEDLVEEVGR	-0.257 ± 0.042
WRRVRAILPYTKVPDTDEISFLKGDMFIVHNELEDGWMWVTNLRTDEQGLIVEDLVEEVGR	-0.315 ± 0.059
RRRVRAILPYTKVPQTDEISFLKGDMFIVHNELEDGWMWVTNLRTDEQGLIVEDLVEEVGR	-0.207 ± 0.072
RRRVRAILPYTKVPVTDEISFLKGDMFIVHNELEDGWMWVTNLRTDEQGLIVEDLVEEVGR	-0.577 ± 0.03
RRRVRAILPYTKVPGTDEISFLKGDMFIVHNELEDGWMWVTNLRTDEQGLIVEDLVEEVGR	-0.011 ± 0.025
RRRVRAILPYTKVPATDEISFLKGDMFIVHNELEDGWMWVTNLRTDEQGLIVEDLVEEVGR	-0.129 ± 0.029
RRRVRAILPYAKVPDTDEISFLKGDMFIVHNELEDGWMWVTNLRTDEQGLIVEDLVEEVGR	-0.05 ± 0.035
RRRVRAILPYHKVPDTDEISFLKGDMFIVHNELEDGWMWVTNLRTDEQGLIVEDLVEEVGR	-0.129 ± 0.031
RRRVRAILPYTKVPDTREISFLKGDMFIVHNELEDGWMWVTNLRTDEQGLIVEDLVEEVGR	0.005 ± 0.03
RRRVRAILPYTKVPDTIEISFLKGDMFIVHNELEDGWMWVTNLRTDEQGLIVEDLVEEVGR	-0.275 ± 0.033
RRRVRAILPYTKVPDTCEISFLKGDMFIVHNELEDGWMWVTNLRTDEQGLIVEDLVEEVGR	-0.105 ± 0.03
